According to patent US20250332261A1:

Target: human epidermal growth factor receptor 1 (EGFR1) (human) (UniProt P00533)
Test: tritium-labelled compound 5 µg/ml, 3 h +37 °C, FaDu cells, scintillation counting of lysate; internalized plus surface-bound; mean of three ± S.D.; negative control

Substance: Control-mAb (omalizumab, anti-IgE) (antibody)
- % internalized/100000 cells (% internalized/100000 cells): 0.01
